Each block holds one binder with its values, some of them ahead of it.
Key:
human c-KIT = target: T1, human c-KIT (human, UniProt P10721 26-976); experiment: flow cytometry on fixed GIST-T1 cells, 10 µg antibody
T1 construct: whole, on cells; Endogenous c-KIT of the GIST cell line GIST-T1 and the small cell lung cancer line SY; also called c-KIT on GIST-T1 cells; c-KIT on SCLC cell line SY
Description: GIST-T1 cells were collected with trypsin (on ice), and 1×10⁶ cells were dispensed into 1.5 mL tubes. The cells were washed three times with 1 mL of PBS-BSA-Azide. To each tube, 1 mL of 4% paraformaldehyde cooled to 4° C. was added and mixed by gentle pipetting on ice. The tubes were returned to room temperature and left to stand for 15 minutes (the subsequent process was carried out at room temperature). The cells were washed three times with 1 mL of PBS-BSA-Azide.
To GIST-T1 cell pellets, 100 μL of each antibody solution prepared with PBS-BSA-Azide was added and mixed. The mixtures were prepared to contain 10 μg of the IR700-labeled mouse anti-c-KIT (12A8) antibody, 10 μg of the IR700-labeled humanized anti-c-KIT (12A8) IgG1 antibody, and 10 μg of the IR700-labeled humanized anti-c-KIT (12A8) Fab antibody, respectively. Each mixture was covered with aluminum foil in the dark and allowed to react at room temperature (from 20° C. to 25° C.) for 60 minutes (the subsequent process was carried out in the dark as much as possible). Washing was performed three times by adding 1 mL of PBS-BSA-Azide. After adding 500 μL of PBS-BSA-Azide and mixing, each mixture was passed through a filter (42-μm nylon mesh, AS ONE Corporation). Measurement was performed using FACS (CytoFLEX (Beckman Coulter)) with excitation at 638 nm and 712/25BP.

[1] = target: T2, FLT4-Fc (fusion product of the extracellular region of the human FLT4 protein and mouse antibody Fc) (human; mouse, UniProt P35916 25-775); experiment: EIA, antigen solid-phased in 96-well plate, HRP anti-human Kappa detection
T2 construct: extracellular domain; Negative control antigen in the EIA
T2 sequence (looked up): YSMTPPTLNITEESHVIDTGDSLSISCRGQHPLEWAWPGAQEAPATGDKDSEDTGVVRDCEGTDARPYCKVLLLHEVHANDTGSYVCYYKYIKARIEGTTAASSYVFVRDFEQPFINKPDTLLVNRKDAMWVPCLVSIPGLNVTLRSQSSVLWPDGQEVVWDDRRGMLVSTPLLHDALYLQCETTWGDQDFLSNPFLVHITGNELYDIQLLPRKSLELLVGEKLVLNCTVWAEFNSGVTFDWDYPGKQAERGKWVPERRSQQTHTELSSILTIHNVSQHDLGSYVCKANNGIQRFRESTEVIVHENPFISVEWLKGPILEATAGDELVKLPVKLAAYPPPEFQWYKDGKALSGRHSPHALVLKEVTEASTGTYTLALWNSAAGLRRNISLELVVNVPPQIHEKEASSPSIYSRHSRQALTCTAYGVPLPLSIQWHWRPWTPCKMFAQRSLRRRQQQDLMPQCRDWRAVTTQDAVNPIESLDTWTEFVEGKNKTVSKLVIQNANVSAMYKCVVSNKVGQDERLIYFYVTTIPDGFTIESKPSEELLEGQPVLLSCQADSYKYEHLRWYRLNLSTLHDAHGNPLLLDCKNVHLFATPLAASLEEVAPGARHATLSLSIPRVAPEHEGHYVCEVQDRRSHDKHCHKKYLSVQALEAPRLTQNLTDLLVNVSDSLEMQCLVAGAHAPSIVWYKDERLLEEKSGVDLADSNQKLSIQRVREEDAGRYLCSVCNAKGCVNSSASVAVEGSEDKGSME
Source text: Since the antigen recognition site of the anti-c-KIT (12A8) antibody is the extracellular region of the human c-KIT protein, a fusion protein (c-KIT-Fc) of the c-KIT extracellular region and the Fc region of the mouse antibody was used as the antigen for EIA. A fusion product of the extracellular region of the human FLT4 protein and mouse antibody Fc (FLT4-Fc) was used as a negative control.
Each above was solid-phased in a 96-well plate, blocked with a BSA solution, washed, sufficiently dried, and then stored in a refrigerator until use. The humanized anti-c-KIT (12A8) IgG1 antibody-producing clone culture supernatant was diluted 2-fold to 64-fold and added to an antigen solid-phase plate and a negative control plate so as to perform a primary reaction. The same was performed for the humanized anti-c-KIT (12A8) Fab antibody. The primary reaction was carried out for one hour at room temperature, and then each well was washed with phosphate-buffered saline (PBS). The HRP-labeled anti-human Kappa chain antibody was added as a secondary antibody and reacted for 30 minutes at room temperature. Thereafter, each well was washed with PBS, and the substrate OPD (Sigma-Aldrich) was added to develop a color. IN sulfuric acid was added to stop the reaction, and the absorbance at 490 nm was measured.

T1 sequence (P10721 26-976): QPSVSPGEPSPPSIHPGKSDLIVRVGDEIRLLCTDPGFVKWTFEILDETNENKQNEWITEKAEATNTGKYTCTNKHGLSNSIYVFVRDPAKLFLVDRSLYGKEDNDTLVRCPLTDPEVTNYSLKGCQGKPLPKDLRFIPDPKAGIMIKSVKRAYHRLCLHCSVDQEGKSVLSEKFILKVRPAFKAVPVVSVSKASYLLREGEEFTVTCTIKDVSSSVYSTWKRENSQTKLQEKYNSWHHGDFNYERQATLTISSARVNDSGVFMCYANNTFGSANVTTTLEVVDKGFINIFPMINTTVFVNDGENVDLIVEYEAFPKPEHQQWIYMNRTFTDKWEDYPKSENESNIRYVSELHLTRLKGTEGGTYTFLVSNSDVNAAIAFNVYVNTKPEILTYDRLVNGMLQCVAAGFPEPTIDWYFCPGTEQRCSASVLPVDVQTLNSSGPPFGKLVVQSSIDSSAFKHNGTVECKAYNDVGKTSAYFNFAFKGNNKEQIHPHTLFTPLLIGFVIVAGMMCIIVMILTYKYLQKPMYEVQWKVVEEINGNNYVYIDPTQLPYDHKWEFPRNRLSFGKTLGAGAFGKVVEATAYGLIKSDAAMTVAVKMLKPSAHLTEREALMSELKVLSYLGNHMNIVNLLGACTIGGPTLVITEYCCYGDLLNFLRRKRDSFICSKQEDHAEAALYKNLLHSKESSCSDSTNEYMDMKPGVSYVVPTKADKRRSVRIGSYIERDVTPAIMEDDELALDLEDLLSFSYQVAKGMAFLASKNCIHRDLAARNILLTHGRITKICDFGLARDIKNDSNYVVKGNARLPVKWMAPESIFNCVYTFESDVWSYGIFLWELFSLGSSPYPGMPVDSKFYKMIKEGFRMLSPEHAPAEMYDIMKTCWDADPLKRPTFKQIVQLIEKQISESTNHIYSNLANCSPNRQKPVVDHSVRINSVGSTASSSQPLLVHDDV

binding result (human c-KIT): binds
B1: IR700-labeled mouse anti-c-KIT (12A8) antibody (whole IgG) (antibody, V domains shown)
VH: EVQLQQSGPELVKTGTSVKISCKASGYSFSNYYMHWVKQSHGKSLEWIGYISCFNGATTYNQKFRGKATFTVDTSSSTTYMQFNSLTSEDSAVYFCARRTAGAMDYWGQGTSVTVSS
VL: EVVVTQTPLSLPVSFGDQVSISCRSSQSLANSYGNTYLSWYLHKPGQSPQLLIYGISNRFSGVPDRFSGSGSGTEFTLEISTIKPEDLGMYYCLQGTHQPYTFGGGTKLEIKR
modifications: IR700 (IRDye700DX) conjugated, residues not stated
notes: Mouse IgG1 12A8 conjugated with IRDye700DX; also called IR700-12A8 (whole IgG); IR700-12A8 Whole IgG

binding result (human c-KIT): binds
B2: IR700-labeled humanized anti-c-KIT (12A8) IgG1 antibody (antibody, V domains shown)
VH: QVQLVQSGAEVKKPGASVKVSCKASGYSFSNYYMHWVRQAPGQRLEWMGYISCFNGATTYNQKFRGRVTITRDTSASTAYMELSSLRSEDTAVYYCARRTAGAMDYWGQGTLVTVSS
VL: DIVMTQTPLSLSVTPGQPASISCRSSQSLANSYGNTYLSWYLQKPGQSPQLLIYGISNRFSGVPDRFSGSGSGTDFTLKISRVEAEDVGVYYCLQGTHQPYTFGGGTKVEIKR
modifications: IR700 (IRDye700DX) conjugated, residues not stated
notes: The antibody was purified on protein A before labeling; also called Humanized Whole IgG

binding result (human c-KIT): binds
B3: IR700-labeled humanized anti-c-KIT (12A8) Fab antibody (Fab, V domains shown)
VH: B2 VH
VL: B2 VL
modifications: IR700 (IRDye700DX) conjugated, residues not stated
notes: The Fab was purified on Kan Cap G before labeling; also called Humanized Fab

binding result [1]: no binding
B4: humanized anti-c-KIT (12A8) IgG1 antibody (antibody, V domains shown)
VH: B2 VH
VL: B2 VL
notes: Human IgG1 / kappa, tested in the EIA as CHO-K1 culture supernatant; also called humanized c-KIT (12A8) IgG1; humanized anti-c-KIT (12A8) antibody (whole IgG)

binding result [1]: no binding
B5: humanized anti-c-KIT (12A8) Fab antibody (Fab, V domains shown)
VH: B2 VH
VL: B2 VL
notes: Recombinant Fab, tested in the EIA as CHO-K1 culture supernatant; also called Fab fragment of the humanized anti-c-KIT (12A8) antibody

Reference: patent US20250215073A1 (TOKUSHIMA UNIVERSITY, published 2025)
